Laboratory results taken from patent US20200325220A1 (published 2020).

B1: C6b (antibody)
heavy: not shown
light: EIVLTQSPGTLSLSPGETAILSCRASQSVSSSLLAWYQQKPGQAPRLLIYGASNRATGIRGRFSGSGSGTDFTLTISRLEPEDFVLYYCQHYGSRVTFGQGTKLEIKRTVAAPSVFIFPPSDEQLKSGTASVVCLLNNFYPREAKVQWKVDNALQSGNSQESVTEQDSKDSTYSLSSTLTLSKADYEKHKVYACEVTHQGLSSPVTKSFNRGEC
B2: C6 (antibody)
heavy: not shown
light: B1 light
B3: GCE536 (antibody)
heavy: not shown
light: B1 light
B4: C5 (antibody)
heavy: not shown
light: B1 light
B5: C5b (antibody)
heavy: not shown
light: B1 light
B6: C9 (antibody, V domains shown)
VH: DVQLVESGGGVVRPGVSLRLSCVASGFSFKNYDMAWVRQVPGKGLEWVCGINWNGSLRGYADSVKGRFLISRDHAKDSLYLQMSRLRAEDTALYYCARDPGYNTGRDHPYDLWGQGTMVTVSS
VL: DIQMTQSPSTLSASVGDRVTITCRASQSISSWLAWYQQKPGKAPKLLIYKASSLGSGVPSRFSGSGSGTQFTLTISSLQPDDFATYYCQQYNNYPYTFGQGTKLEIKR

How the values were obtained:
Assay in all cases: ELISA
[1] = target: αSLAM
[2] = target: αPD-1
[3] = target: recombinant human GM-CSF (human, UniProt P04141 18-144)
Chain of recombinant human GM-CSF (P04141 18-144): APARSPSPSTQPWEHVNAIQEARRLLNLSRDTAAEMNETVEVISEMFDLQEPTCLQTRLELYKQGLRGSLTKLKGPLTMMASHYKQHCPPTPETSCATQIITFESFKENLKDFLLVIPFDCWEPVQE

[4] = target: Strep-tactin

Row | Binder | EC50 [1] [µg/mL] | EC50 [2] [µg/mL] | EC50 [3] [µg/mL] | EC50 [4] [µg/mL]
1 | B1 | 0.0885 | ~1350 | 0.0324 | –
2 | B2 | 0.0958 | ~743 | – | –
3 | B3 | – | – | 0.0492 | –
4 | B4 | ~632 | 0.0585 | 0.0515 | –
5 | B5 | ~397 | 0.0371 | 0.0355 | –
6 | B6 | – | – | – | 0.187
